Blank lines part the entries; values can stand above or below the substance they belong to.
Assays:
Test in all cases: protein-fragment complementation
Bzz1 = Bzz1 (UniProt P38822)
Chc1 = Chc1 (UniProt P22137)
Bmh1 = Bmh1 (UniProt P29311)
Cmd1 = Cmd1 (UniProt P06787)
Myo5 = Myo5 (UniProt Q04439)
Pab1 = Pab1 (UniProt P04147)
Vrp1 = Vrp1 (UniProt P37370)
Srv2 = Srv2 (UniProt P17555)
Hek2 = Hek2 (UniProt P38199)
Lsb3 = Lsb3 (UniProt P43603)
Aim21 = Aim21 (UniProt P40563)
Abp1 = Abp1 (UniProt P15891)
Yor1 = Yor1 (UniProt P53049)
Ssb1 = Ssb1 (UniProt P11484)
Chain of UniProt P11484 (P11484 whole entry): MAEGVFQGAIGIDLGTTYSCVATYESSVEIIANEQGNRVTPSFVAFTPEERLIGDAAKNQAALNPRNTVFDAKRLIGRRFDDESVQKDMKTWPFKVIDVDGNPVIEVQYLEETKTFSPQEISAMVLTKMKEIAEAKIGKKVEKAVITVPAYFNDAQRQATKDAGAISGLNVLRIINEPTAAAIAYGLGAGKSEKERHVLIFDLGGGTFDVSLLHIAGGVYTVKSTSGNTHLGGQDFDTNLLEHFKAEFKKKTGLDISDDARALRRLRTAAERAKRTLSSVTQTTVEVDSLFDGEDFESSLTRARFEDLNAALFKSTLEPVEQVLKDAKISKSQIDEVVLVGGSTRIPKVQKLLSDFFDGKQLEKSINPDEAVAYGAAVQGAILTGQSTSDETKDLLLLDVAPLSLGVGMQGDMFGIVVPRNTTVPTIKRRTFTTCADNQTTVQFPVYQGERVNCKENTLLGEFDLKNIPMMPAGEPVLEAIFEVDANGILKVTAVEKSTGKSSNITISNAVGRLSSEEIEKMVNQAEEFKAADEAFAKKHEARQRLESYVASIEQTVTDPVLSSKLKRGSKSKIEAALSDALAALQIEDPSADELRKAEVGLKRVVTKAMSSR

Sla2 = Sla2 (UniProt P33338)
Nap1 = Nap1 (UniProt P25293)
Chain of UniProt P25293 (P25293 whole entry): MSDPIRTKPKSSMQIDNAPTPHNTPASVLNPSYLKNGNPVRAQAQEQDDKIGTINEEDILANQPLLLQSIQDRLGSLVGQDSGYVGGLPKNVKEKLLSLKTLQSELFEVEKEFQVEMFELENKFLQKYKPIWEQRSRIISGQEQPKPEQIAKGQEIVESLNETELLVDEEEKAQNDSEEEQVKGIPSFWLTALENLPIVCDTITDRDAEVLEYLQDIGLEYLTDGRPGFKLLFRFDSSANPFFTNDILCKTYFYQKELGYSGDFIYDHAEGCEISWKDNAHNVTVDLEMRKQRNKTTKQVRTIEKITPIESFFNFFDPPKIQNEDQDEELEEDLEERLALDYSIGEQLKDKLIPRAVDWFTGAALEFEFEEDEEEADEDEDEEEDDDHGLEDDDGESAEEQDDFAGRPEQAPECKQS

Osh2 = Osh2 (UniProt Q12451)
Tif4631 = Tif4631 (UniProt P39935)
Bbc1 = Bbc1 (UniProt P47068)
Cdc10 = Cdc10 (UniProt P25342)
Arc40 = Arc40 (UniProt P38328)
Ste20 = Ste20 (UniProt Q03497)
Chain of UniProt Q03497 (Q03497 whole entry): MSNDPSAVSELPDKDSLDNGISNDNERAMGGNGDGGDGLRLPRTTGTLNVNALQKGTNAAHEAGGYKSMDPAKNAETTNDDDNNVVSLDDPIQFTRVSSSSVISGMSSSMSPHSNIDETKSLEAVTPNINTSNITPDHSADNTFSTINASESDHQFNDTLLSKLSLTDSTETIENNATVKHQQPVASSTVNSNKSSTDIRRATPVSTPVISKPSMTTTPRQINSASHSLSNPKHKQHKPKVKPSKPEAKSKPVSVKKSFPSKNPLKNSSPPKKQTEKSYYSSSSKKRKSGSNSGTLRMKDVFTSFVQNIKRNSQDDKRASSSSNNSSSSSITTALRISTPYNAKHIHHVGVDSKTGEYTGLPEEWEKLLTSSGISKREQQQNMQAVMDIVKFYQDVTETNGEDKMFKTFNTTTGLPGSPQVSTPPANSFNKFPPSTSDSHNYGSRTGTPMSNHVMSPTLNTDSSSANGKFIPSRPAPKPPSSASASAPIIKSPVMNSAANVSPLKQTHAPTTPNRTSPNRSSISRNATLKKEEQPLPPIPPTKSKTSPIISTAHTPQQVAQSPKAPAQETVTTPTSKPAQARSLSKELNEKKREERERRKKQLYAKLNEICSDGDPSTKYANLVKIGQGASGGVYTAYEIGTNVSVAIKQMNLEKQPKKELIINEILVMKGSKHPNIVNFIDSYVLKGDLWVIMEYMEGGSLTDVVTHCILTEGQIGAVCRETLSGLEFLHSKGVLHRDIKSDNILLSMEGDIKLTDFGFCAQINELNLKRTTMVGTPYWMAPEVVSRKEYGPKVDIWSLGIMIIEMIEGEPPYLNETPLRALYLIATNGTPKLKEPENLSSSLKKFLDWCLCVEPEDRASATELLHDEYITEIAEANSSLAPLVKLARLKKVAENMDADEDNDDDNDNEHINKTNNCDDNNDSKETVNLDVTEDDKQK

Ssa1 = Ssa1 (UniProt P10591)
Pkh2 = target: Pkh2
Hsp104 = Hsp104 (UniProt P31539)
Arc18 = Arc18 (UniProt Q05933)
Chain of UniProt Q05933 (Q05933 whole entry): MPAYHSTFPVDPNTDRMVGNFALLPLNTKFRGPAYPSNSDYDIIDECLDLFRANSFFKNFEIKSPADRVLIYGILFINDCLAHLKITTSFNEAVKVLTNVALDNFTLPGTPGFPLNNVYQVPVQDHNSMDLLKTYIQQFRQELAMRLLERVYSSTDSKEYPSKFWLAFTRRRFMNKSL

Ssz1 = Ssz1 (UniProt P38788)
Sfk1 = Sfk1 (UniProt P35735)
Ysc84 = Ysc84 (UniProt P32793)
Sla1 = Sla1 (UniProt P32790)
Rvs167 = Rvs167 (UniProt P39743)
Ygl242c = Ygl242c (UniProt P53066)
Mid2 = Mid2 (UniProt P36027)
Ssb2 = Ssb2 (UniProt P40150)
Chain of UniProt P40150 (P40150 whole entry): as the sequence (P11484 whole entry) above, with E49Q, M413I, C435V, A436S counted along it

Sac6 = Sac6 (UniProt P32599)
Chain of UniProt P32599 (P32599 whole entry): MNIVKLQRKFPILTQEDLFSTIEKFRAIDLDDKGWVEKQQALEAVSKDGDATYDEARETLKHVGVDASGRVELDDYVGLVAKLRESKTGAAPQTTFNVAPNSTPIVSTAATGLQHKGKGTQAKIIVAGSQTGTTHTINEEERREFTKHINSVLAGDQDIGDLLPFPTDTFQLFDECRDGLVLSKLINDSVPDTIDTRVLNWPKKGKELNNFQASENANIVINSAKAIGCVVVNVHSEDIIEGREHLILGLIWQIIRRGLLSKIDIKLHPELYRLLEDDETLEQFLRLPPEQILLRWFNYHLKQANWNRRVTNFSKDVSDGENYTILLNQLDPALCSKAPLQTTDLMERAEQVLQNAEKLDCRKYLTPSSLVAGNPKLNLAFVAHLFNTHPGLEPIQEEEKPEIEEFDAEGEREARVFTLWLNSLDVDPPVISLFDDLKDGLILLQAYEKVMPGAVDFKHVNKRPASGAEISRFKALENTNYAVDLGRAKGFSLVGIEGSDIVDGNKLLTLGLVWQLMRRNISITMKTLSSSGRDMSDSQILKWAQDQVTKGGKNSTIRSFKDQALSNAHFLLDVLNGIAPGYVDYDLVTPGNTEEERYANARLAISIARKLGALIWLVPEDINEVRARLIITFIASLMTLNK

Cdc3 = Cdc3 (UniProt P32457)
Tdh3 = Tdh3 (UniProt P00359)
Chain of UniProt P00359 (P00359 whole entry): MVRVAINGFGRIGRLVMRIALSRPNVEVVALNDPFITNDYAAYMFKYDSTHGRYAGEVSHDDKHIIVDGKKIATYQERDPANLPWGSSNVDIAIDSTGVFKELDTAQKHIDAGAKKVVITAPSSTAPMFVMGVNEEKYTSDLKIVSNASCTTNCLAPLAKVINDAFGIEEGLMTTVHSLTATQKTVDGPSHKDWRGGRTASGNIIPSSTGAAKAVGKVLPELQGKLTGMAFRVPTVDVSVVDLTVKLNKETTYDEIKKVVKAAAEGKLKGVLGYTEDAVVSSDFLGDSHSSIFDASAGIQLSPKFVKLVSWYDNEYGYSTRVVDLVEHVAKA

Syp1 = Syp1 (UniProt P25623)
Las17 = Las17 (UniProt Q12446)
Arc15 = Arc15 (UniProt P40518)
Chain of UniProt P40518 (P40518 whole entry): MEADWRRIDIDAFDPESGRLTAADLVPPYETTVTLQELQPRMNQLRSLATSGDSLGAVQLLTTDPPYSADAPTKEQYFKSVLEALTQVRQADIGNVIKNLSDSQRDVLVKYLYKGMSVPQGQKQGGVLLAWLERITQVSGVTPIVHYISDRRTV

Sbp1 = Sbp1 (UniProt P10080)
Arc19 = Arc19 (UniProt P33204)
Smi1 = Smi1 (UniProt P32566)
Chain of UniProt P32566 (P32566 whole entry): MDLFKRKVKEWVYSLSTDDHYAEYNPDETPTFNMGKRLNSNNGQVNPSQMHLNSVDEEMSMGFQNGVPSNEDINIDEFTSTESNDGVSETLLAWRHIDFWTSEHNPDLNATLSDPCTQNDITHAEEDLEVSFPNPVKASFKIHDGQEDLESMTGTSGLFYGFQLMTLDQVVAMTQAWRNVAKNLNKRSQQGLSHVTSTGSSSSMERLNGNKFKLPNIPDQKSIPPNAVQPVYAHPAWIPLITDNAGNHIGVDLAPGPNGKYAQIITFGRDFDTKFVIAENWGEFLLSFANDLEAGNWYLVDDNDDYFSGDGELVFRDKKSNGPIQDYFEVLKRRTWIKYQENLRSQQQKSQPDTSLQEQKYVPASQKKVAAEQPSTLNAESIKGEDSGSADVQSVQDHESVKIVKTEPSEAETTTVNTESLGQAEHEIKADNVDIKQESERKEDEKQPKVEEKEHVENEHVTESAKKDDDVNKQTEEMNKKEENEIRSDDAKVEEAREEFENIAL

Pan1 = Pan1 (UniProt P32521)
Pfk1 = Pfk1 (UniProt P16861)

Chain of UniProt P17555 (P17555 whole entry): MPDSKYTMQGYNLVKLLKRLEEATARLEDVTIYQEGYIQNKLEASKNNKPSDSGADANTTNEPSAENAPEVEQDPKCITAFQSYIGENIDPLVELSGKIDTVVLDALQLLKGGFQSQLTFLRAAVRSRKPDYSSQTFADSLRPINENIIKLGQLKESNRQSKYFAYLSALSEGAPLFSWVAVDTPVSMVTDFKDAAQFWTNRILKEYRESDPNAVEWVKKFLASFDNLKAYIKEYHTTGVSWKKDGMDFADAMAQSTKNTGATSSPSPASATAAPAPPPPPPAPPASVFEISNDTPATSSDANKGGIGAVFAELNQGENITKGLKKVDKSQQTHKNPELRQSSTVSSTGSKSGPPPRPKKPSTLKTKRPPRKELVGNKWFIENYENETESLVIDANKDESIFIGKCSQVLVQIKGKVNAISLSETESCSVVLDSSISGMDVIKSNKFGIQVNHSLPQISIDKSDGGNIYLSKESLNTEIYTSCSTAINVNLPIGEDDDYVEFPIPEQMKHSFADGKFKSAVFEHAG
Chain of UniProt P43603 (P43603 whole entry): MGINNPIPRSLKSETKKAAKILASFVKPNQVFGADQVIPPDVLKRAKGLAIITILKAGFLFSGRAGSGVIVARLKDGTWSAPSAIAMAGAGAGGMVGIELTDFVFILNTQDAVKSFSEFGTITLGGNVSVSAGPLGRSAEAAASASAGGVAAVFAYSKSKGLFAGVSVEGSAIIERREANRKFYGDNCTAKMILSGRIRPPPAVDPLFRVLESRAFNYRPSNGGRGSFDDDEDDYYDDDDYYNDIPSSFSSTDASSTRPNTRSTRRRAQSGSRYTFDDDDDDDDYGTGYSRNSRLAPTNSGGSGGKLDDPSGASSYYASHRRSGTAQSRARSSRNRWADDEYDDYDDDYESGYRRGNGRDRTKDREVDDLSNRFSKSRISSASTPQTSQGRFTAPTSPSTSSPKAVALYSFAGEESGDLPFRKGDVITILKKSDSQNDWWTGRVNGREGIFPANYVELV
Chain of UniProt P06787 (P06787 whole entry): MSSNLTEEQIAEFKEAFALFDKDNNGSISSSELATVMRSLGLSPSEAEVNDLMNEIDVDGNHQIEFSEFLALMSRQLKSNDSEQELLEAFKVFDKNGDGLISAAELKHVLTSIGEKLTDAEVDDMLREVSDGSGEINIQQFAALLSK

Substance: Myo5 with SH3 AncA (from UniProt Q04439)
- interaction score (Bzz1): 0.801
- interaction score (Chc1): 0.583
- interaction score (Bmh1): 0.791
- interaction score (Cmd1): 0.216
- interaction score (Myo5): 0.889
- interaction score (Pab1): 0.783
- interaction score (Vrp1): 0.892
- interaction score (Srv2): 0.62
- interaction score (Hek2): 0.391
- interaction score (Lsb3): 0.616
- interaction score (Aim21): 0.744
- interaction score (Abp1): 0.89
- interaction score (Yor1): 0.473
- interaction score (Ssb1): 0.918
- interaction score (Sla2): 0.633
- interaction score (Nap1): 0.489
- interaction score (Osh2): 0.738
- interaction score (Tif4631): 0.664
- interaction score (Bbc1): 0.722
- interaction score (Cdc10): 0.39
- interaction score (Arc40): 0.937
- interaction score (Ste20): 0.447
- interaction score (Ssa1): 0.885
- interaction score (Pkh2): 0.128
- interaction score (Hsp104): 0.755
- interaction score (Arc18): 0.844
- interaction score (Ssz1): 0.807
- interaction score (Sfk1): 0.711
- interaction score (Ysc84): 0.458
- interaction score (Sla1): 0.527
- interaction score (Rvs167): 0.525
- interaction score (Ygl242c): 0.917
- interaction score (Mid2): 0.848
- interaction score (Ssb2): 0.915
- interaction score (Sac6): 0.801
- interaction score (Cdc3): 0.481
- interaction score (Tdh3): 0.947
- interaction score (Syp1): 0.526
- interaction score (Las17): 0.862
- interaction score (Arc15): 0.865
- interaction score (Sbp1): 0.792
- interaction score (Arc19): 0.754
- interaction score (Smi1): 0.53
- interaction score (Pan1): 0.908

Substance: Myo5 with SH3 AncC (from UniProt Q04439)
- interaction score (Bzz1): 0.782
- interaction score (Chc1): 0.578
- interaction score (Bmh1): 0.806
- interaction score (Cmd1): 0.412
- interaction score (Myo5): 0.885
- interaction score (Pab1): 0.783
- interaction score (Vrp1): 0.89
- interaction score (Srv2): 0.579
- interaction score (Hek2): 0.421
- interaction score (Lsb3): 0.584
- interaction score (Aim21): 0.727
- interaction score (Abp1): 0.887
- interaction score (Yor1): 0.395
- interaction score (Ssb1): 0.93
- interaction score (Sla2): 0.575
- interaction score (Nap1): 0.469
- interaction score (Osh2): 0.654
- interaction score (Tif4631): 0.659
- interaction score (Bbc1): 0.712
- interaction score (Cdc10): 0.334
- interaction score (Arc40): 0.946
- interaction score (Ste20): 0.33
- interaction score (Ssa1): 0.883
- interaction score (Pkh2): 0.0849
- interaction score (Hsp104): 0.76
- interaction score (Arc18): 0.85
- interaction score (Ssz1): 0.81
- interaction score (Sfk1): 0.685
- interaction score (Ysc84): 0.431
- interaction score (Sla1): 0.489
- interaction score (Rvs167): 0.404
- interaction score (Ygl242c): 0.919
- interaction score (Mid2): 0.846
- interaction score (Ssb2): 0.92
- interaction score (Sac6): 0.807
- interaction score (Cdc3): 0.438
- interaction score (Tdh3): 0.949
- interaction score (Syp1): 0.48
- interaction score (Las17): 0.843
- interaction score (Arc15): 0.874
- interaction score (Sbp1): 0.816
- interaction score (Arc19): 0.72
- interaction score (Smi1): 0.555
- interaction score (Pan1): 0.896

Substance: Myo5 with SH3 optMyo5 (from UniProt Q04439)
- interaction score (Bzz1): 0.814
- interaction score (Chc1): 0.603
- interaction score (Bmh1): 0.831
- interaction score (Cmd1): 0.319
- interaction score (Pfk1): 0.877
- interaction score (Myo5): 0.915
- interaction score (Pab1): 0.794
- interaction score (Vrp1): 0.916
- interaction score (Srv2): 0.658
- interaction score (Hek2): 0.412
- interaction score (Lsb3): 0.639
- interaction score (Aim21): 0.758
- interaction score (Abp1): 0.903
- interaction score (Yor1): 0.521
- interaction score (Ssb1): 0.944
- interaction score (Sla2): 0.65
- interaction score (Nap1): 0.509
- interaction score (Osh2): 0.768
- interaction score (Tif4631): 0.671
- interaction score (Bbc1): 0.758
- interaction score (Cdc10): 0.423
- interaction score (Arc40): 0.968
- interaction score (Ste20): 0.446
- interaction score (Ssa1): 0.908
- interaction score (Pkh2): 0.124
- interaction score (Hsp104): 0.762
- interaction score (Ssz1): 0.841
- interaction score (Sfk1): 0.723
- interaction score (Ysc84): 0.514
- interaction score (Sla1): 0.551
- interaction score (Rvs167): 0.539
- interaction score (Ygl242c): 0.948
- interaction score (Mid2): 0.866
- interaction score (Ssb2): 0.932
- interaction score (Sac6): 0.838
- interaction score (Cdc3): 0.493
- interaction score (Tdh3): 0.97
- interaction score (Syp1): 0.572
- interaction score (Las17): 0.875
- interaction score (Arc15): 0.902
- interaction score (Sbp1): 0.834
- interaction score (Arc19): 0.769
- interaction score (Smi1): 0.568
- interaction score (Pan1): 0.926

The next lines start with the values.

- interaction score (Bzz1): 0.701
- interaction score (Chc1): 0.589
- interaction score (Bmh1): 0.838
- interaction score (Cmd1): 0.278
- interaction score (Pfk1): 0.862
- interaction score (Myo5): 0.862
- interaction score (Pab1): 0.805
- interaction score (Vrp1): 0.855
- interaction score (Srv2): 0.522
- interaction score (Hek2): 0.351
- interaction score (Lsb3): 0.487
- interaction score (Aim21): 0.647
- interaction score (Abp1): 0.878
- interaction score (Yor1): 0.254
- interaction score (Ssb1): 0.935
- interaction score (Sla2): 0.473
- interaction score (Nap1): 0.463
- interaction score (Osh2): 0.352
- interaction score (Tif4631): 0.687
- interaction score (Bbc1): 0.562
- interaction score (Cdc10): 0.31
- interaction score (Arc40): 0.952
- interaction score (Ste20): 0.718
- interaction score (Ssa1): 0.903
- interaction score (Pkh2): 0.0507
- interaction score (Hsp104): 0.77
- interaction score (Arc18): 0.825
- interaction score (Ssz1): 0.848
- interaction score (Sfk1): 0.545
- interaction score (Ysc84): 0.318
- interaction score (Sla1): 0.309
- interaction score (Rvs167): 0.273
- interaction score (Ygl242c): 0.949
- interaction score (Mid2): 0.827
- interaction score (Ssb2): 0.938
- interaction score (Sac6): 0.793
- interaction score (Cdc3): 0.353
- interaction score (Tdh3): 0.968
- interaction score (Syp1): 0.338
- interaction score (Las17): 0.785
- interaction score (Arc15): 0.887
- interaction score (Sbp1): 0.83
- interaction score (Arc19): 0.655
- interaction score (Smi1): 0.551
- interaction score (Pan1): 0.87
Substance: Myo5 with SH3 AncD (from UniProt Q04439)

- interaction score (Bzz1): 0.767
- interaction score (Chc1): 0.553
- interaction score (Bmh1): 0.762
- interaction score (Cmd1): 0.405
- interaction score (Pfk1): 0.807
- interaction score (Myo5): 0.869
- interaction score (Pab1): 0.756
- interaction score (Vrp1): 0.862
- interaction score (Srv2): 0.591
- interaction score (Hek2): 0.366
- interaction score (Lsb3): 0.595
- interaction score (Aim21): 0.715
- interaction score (Abp1): 0.865
- interaction score (Yor1): 0.467
- interaction score (Ssb1): 0.889
- interaction score (Sla2): 0.59
- interaction score (Nap1): 0.444
- interaction score (Osh2): 0.703
- interaction score (Tif4631): 0.621
- interaction score (Bbc1): 0.698
- interaction score (Cdc10): 0.404
- interaction score (Arc40): 0.902
- interaction score (Ste20): 0.424
- interaction score (Ssa1): 0.849
- interaction score (Pkh2): 0.142
- interaction score (Hsp104): 0.724
- interaction score (Arc18): 0.812
- interaction score (Ssz1): 0.776
- interaction score (Sfk1): 0.691
- interaction score (Ysc84): 0.455
- interaction score (Sla1): 0.51
- interaction score (Rvs167): 0.501
- interaction score (Ygl242c): 0.881
- interaction score (Mid2): 0.821
- interaction score (Ssb2): 0.881
- interaction score (Sac6): 0.775
- interaction score (Cdc3): 0.466
- interaction score (Syp1): 0.513
- interaction score (Las17): 0.823
- interaction score (Arc15): 0.837
- interaction score (Sbp1): 0.772
- interaction score (Arc19): 0.724
- interaction score (Smi1): 0.514
- interaction score (Pan1): 0.876
Substance: Myo5 with SH3 AncA_3 (from UniProt Q04439)

— paper doi:10.1101/2023.03.09.531510
